Test results: patent US20220048993A1 (published 2022)
Changes are numbered by the printed parent chain. Each block holds one binder with its values, some of them ahead of it.

Legend:
[1] = target: T1, human FcRH3 (BIACORE analyte) (human, UniProt Q96P31 18-573); assay: SPR (1:1 binding); 25 °C
T1 chain: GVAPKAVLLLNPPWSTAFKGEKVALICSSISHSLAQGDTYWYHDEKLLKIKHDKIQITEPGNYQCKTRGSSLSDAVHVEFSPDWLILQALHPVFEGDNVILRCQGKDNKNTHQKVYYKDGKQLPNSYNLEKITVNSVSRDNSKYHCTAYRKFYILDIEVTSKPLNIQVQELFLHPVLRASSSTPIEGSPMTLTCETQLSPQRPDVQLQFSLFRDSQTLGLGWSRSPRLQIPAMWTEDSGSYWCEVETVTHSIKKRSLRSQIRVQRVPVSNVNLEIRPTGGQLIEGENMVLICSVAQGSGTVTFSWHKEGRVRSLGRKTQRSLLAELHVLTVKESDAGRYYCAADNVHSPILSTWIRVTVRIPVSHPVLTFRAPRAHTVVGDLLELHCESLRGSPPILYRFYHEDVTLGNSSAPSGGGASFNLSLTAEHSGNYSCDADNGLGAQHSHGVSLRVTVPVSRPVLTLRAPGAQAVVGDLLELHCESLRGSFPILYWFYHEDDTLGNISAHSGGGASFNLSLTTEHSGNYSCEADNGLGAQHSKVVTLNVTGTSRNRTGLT

[2] = target: T2, soluble human FcRH5 protein fragment (UniProt Q96RD9 16-851); assay: SPR
T2 chain: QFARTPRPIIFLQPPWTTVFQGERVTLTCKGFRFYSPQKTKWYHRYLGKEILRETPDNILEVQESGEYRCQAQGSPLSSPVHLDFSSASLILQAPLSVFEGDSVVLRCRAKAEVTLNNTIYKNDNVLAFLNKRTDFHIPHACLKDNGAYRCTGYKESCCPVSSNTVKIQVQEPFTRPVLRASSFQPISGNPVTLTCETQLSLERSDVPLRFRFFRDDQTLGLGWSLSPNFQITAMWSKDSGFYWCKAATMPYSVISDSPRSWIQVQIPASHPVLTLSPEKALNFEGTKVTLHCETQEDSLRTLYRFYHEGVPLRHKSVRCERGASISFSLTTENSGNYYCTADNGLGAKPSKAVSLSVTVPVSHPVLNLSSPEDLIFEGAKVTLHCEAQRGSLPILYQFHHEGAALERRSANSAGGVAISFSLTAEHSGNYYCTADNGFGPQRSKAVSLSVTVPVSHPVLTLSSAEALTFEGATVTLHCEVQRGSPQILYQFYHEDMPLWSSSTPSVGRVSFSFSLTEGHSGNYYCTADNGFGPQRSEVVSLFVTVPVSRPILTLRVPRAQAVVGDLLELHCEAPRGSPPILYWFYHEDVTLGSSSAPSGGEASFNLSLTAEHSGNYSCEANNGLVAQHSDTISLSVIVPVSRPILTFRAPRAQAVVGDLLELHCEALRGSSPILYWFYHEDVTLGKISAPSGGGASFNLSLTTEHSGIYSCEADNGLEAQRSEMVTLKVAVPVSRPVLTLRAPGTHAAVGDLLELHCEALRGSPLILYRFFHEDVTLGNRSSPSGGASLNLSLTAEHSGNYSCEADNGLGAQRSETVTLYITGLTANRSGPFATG

7D8.RbIgG = assay: SPR; 25 °C
[3] = target: T3, soluble cynomolgus FcRH5 protein fragment; assay: SPR; 25 °C
T3 chain: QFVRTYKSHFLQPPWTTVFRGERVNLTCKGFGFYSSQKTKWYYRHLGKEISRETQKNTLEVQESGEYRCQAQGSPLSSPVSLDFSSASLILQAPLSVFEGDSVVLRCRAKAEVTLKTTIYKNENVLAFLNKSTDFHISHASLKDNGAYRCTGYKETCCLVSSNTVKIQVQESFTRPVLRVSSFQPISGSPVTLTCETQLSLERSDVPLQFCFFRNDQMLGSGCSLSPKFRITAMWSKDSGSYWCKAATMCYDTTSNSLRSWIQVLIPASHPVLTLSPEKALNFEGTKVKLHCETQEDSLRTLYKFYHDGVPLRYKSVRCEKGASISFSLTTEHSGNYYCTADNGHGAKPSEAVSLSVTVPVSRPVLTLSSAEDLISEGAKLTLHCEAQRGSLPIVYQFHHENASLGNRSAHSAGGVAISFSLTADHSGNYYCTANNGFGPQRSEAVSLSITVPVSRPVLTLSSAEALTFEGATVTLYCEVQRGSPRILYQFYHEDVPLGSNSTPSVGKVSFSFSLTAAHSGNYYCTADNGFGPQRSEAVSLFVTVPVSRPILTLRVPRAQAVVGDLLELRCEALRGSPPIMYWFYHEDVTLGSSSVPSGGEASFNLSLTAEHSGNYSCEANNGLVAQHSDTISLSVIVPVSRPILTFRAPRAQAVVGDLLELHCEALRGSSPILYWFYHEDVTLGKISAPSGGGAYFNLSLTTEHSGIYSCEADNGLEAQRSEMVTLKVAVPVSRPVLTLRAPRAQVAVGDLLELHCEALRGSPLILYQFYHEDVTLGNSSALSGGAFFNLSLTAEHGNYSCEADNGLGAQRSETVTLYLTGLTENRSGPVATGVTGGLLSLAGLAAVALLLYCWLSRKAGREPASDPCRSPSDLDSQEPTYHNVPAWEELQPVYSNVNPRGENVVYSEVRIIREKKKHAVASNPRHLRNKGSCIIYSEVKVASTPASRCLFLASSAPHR

[4] = target: T2, soluble human FcRH5 protein fragment; assay: SPR; 25 °C

B1: 1G7.v1.4/38E4.v1 TDB (bispecific antibody, V domains shown)
VH 1: EVQLVESGPGLVKPSETLSLTCTVSGFSLTRFGVHWVRQPPGKGLEWLGVIWRGGSTDYNAAFMSRLTISKDNSKNQVSLKLSSVTAADTAVYYCSNHYYGSSDYALDNWGQGTLVTVSS
VL 1: DIQMTQSPSSLSASVGDRVTITCKASQDVRNLVVWFQQKPGKAPKLLIYSGSYRYSGVPSRFSGSGSGTDFTLTISSLQPEDFATYYCQQHYSPPYTFGQGTKVEIK
VH 2: EVQLVQSGAEVKKPGASVKVSCKASGFTFTSYYIHWVRQAPGQGLEWIGWIYPENDNTKYNEKFKDRVTITADTSTSTAYLELSSLRSEDTAVYYCARDGYSRYYFDYWGQGTLVTVSS
VL 2: DIVMTQSPDSLAVSLGERATINCKSSQSLLNSRTRKNYLAWYQQKPGQSPKLLIYWTSTRKSGVPDRFSGSGSGTDFTLTISSLQAEDVAVYYCKQSFILRTFGQGTKVEIK
- Kd [1]: 76.5 nM

B2: hu1G7.v93/38E4.v1 TDB (bispecific antibody, V domains shown)
VH 1: B1 VH 1 with L29T, M64V, S103P
VL 1: B1 VL 1 with R30S
VH 2: B1 VH 2
VL 2: B1 VL 2
- Kd [2]: 1.07 nM

B4: h7D8.L1H2 (antibody)
chain 1: EVQLVESGGGLVQPGGSLRLSCAVSGIDLSSYAMGWVRQAPGKGLEWIGTIGTGGTPYYASWAKGRFTISKDSSKNTVYLQMNSLRAEDTAVYFCARDMYTGSIYYDMWGQGTLVTVSS
chain 2: DAQLTQSPSSLSASVGDRVTITCQSSQSVFNNAQLSWYQQKPGKPPKLLIYDTSNLASGVPSRFSGSGSGTDFTLTISSLQPEDFATYYCLGAYTDDADNAFGQGTKVEIK
- Kd [3]: 4.97 nM
- Kd [4]: 1.26 nM

Next, values leading:

- Kd (7D8.RbIgG): 0.403 nM
B3: Human FcRH5 (receptor)
chain: T2 chain

- Kd (7D8.RbIgG): 1.89 nM
B5: Cyno FcRH5 (receptor)
chain: T3 chain
